# Measurements published in article PMC11074019.
# Legend:
# [1] = molecular target: Transient receptor potential channel ankyrin 1 (TRPA1) (human (endogenous in MDA-MB-231)) (UniProt O75762)
# [2] = molecular target: Transient receptor potential channel ankyrin 1 (TRPA1) (human (endogenous in MDA-MB-231)) (UniProt O75762); remark: listed apart in the source
# Sequence of UniProt O75762 (O75762 whole entry): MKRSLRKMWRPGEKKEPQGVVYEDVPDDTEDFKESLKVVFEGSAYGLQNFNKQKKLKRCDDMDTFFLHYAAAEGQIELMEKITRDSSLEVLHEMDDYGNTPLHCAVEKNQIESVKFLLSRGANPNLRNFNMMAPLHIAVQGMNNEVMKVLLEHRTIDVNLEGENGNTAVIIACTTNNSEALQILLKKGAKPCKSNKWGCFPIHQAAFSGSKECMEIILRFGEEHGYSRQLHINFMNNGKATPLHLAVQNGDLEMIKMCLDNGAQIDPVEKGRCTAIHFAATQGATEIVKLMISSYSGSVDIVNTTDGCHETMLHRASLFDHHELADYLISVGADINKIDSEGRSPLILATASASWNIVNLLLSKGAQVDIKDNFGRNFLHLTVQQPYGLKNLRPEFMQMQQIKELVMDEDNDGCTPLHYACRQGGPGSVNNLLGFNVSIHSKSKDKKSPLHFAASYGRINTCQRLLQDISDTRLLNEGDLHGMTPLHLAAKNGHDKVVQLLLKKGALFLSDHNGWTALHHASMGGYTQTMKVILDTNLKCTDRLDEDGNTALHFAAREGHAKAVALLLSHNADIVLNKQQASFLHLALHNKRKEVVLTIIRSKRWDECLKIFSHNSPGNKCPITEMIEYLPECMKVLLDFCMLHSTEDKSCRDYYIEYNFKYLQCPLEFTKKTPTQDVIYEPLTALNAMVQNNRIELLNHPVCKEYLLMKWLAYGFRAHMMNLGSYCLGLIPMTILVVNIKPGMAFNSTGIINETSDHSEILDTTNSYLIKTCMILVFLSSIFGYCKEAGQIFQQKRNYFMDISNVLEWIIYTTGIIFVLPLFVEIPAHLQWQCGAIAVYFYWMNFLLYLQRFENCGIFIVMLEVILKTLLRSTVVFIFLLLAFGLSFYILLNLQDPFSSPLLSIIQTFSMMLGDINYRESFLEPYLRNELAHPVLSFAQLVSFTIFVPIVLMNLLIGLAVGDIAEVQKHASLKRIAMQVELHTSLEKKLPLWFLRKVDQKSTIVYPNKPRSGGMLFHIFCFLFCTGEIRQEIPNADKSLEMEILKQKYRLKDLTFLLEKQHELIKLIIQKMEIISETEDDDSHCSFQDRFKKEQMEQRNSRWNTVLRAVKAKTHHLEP
substance,measurement,setting,value
Recombinant rat NCS-1 (Ca2+-free) (from UniProt P62168 1-190) (natural protein),"open probability (Po) of AITC-activated TRPA1 single channels in inside-out patches of MDA-MB-231 CTR cells, with NCS-1 (10 μM) vs without",[1],0.883
same,"inward conductance (IG TRPA1) in inside-out patches of MDA-MB-231 CTR cells, without vs with NCS-1",[2],104 pS
same,"inward conductance (IG TRPA1) in inside-out patches of SH-SY5Y cells, without vs with NCS-1",[2],110 pS
same,"outward conductance (OG TRPA1) in inside-out patches of MDA-MB-231 CTR cells, without vs with NCS-1",[2],155 pS
same,"outward conductance (OG TRPA1) in inside-out patches of SH-SY5Y cells, without vs with NCS-1",[2],169 pS
